From EP0733063B1
Several values for one entry are separate records, joined by “and”; a condition that tells them apart may be missing. Equal entries are not always repeated.

Tests used:
[1] = molecular target: purified monoclonal anti-hCG antibody (anti-hCG-A antibody, gift from Organon Technika); assay: ratio of affinity constants of hCG and of the oligopeptide for the antibody
[2] = molecular target: purified monoclonal anti-hCG antibody (anti-hCG-A antibody, gift from Organon Technika); assay: fluorescence anisotropy displacement, non-linear curve fitting by Equation (6), 6 C

With “human chorionic gonadotrophin (hCG), highly purified, intact (from UniProt P01215 25-116; P0DN86 21-165) (ligand)” the fold higher binding affinity than the oligopeptide [1] was 300 fold and 500 fold and the Ka [2] was 9.4e+09 M⁻¹.
